Test results reported in patent US9221871 (NEW YORK UNIVERSITY, dated 2015).

Target: T1, His-tagged human Bcl-xL (human, UniProt Q07817 1-212)
T1 construct: Bought protein; also called Hiss-tagged human Bcl-xL; not shown: His tag
Assay: fluorescence polarization competition against fl-Bak, Kd by regression analysis
Protocol: The anisotropy experiments were performed with a DTX 880 Multimode Detector (Beckman) at 4° C., with excitation and emission wavelengths of 485 and 525 nm, respectively.

T1 sequence (Q07817 1-212): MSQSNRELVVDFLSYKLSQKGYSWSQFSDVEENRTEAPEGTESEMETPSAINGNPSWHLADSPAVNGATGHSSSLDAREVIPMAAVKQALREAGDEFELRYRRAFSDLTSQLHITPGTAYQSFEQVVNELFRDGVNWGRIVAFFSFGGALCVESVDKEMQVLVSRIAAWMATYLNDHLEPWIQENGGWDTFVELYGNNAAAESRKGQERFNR

- Kd: 325 nM
B1: artificial Bak BH3 α-helix 10a (hydrogen bond surrogate, HBS) (peptide)
chain: QVGRQLAIIGDDINR
modifications: not fully specified; N-terminal Gly-72 replaced by a 4-pentenoic acid residue (alkene-bearing glycine mimic); Gly-75 is N-allyl-glycine; the two olefins are joined by ring-closing metathesis (carbon-carbon hydrogen bond surrogate, mixture of cis and trans alkene isomers); C-terminal amide
